We go through 2 molecules from patent US20020133001A1, “Therapeutic agents and methods of use thereof for treating an amyloidogenic disease” (Praecis Pharmaceuticals Inc., priority 2000, published 2002).

Series [1] deals with T1, Aβ fibrils (aged Aβ 1-40) (Homo sapiens, UniProt P05067).
T1 construct: 200 μM Aβ 1-40 peptide solution; purchased Bachem (Torrance, Calif.)
In words: Fibril binding assay. Particulars: compound at 2 μM-200 fM dilutions; FIG. 9. The protocol:
The ability of a compound of the invention to modulate (e.g., inhibit or promote) the aggregation of natural β-AP when combined with the natural β-AP was examined using the Fibril binding assay. Natural β-AP (β-AP1-40) for use in the aggregation assays is commercially available from Bachem (Torrance, Calif.).
The following materials are needed for the Fibril binding assay: Millipore multifilter apparatus; 12×75 glass tubes; GF/F 25 mm glass filters; PBS/0.1% tween 20 at 4° C. (PBST); Aβ fibrils; radioactive compound; nonradioactive compound; Eppendorf repeat pipettor with tips; labels; forceps; and vacuum.
In this assay, each sample was run in triplicate. […]
The radioactively labeled compound was prepared using standard radioactive safety protocols by making a dilution into a PBS/0.1% tween-20 solution such that there was a final concentration of 20,000 dpm per 100 μL. […] The samples were covered with parafilm and incubated at 37° C. inside plastic radioactivity bags overnight.
To filter the samples, the filters were pre-wetted in a small volume of PBST. […] One minute counts were recorded, the data was plotted, and the Prism program (GraphPAD) was used to analyze the graph, according to the manufacturer's instructions.

Series [2] deals with amyloid plaques. In words: Immunohistochemistry: staining of amyloid plaques in brain sections with conditioned medium containing fusion proteins. It counts as binding. The conditions noted are these: 20-22 week mice transgenic for Swedish mutation APP and presenilin M146L; COS conditioned medium; developed with anti-mouse antibody. The protocol:
Twenty micron serial coronal brain sections were prepared from 20-22 week mice transgenic for both the Swedish mutation of amyloid precursor protein and presenilin M146L (Ref.). All incubations were performed at room temperature. Sections were washed once in 100 mM Tris, pH 7.4 (Tris buffer), incubated in 70% formic acid for 3 minutes, then washed three times in Tris buffer. Endogenous peroxidase activity was blocked by incubating for 20 minutes in 10% methanol, 3% hydrogen peroxide in 40 mM Tris, pH 7.4. Sections were washed three times in Tris buffer then incubated in 0.85% NaCl, 0.1% Triton X-100, 100 mM Tris pH 7.4 (Tris buffer A) for 5 minutes followed by […]) for 15 minutes. Sections were incubated overnight in conditioned medium from cells expressing secreted fusion proteins or anti-β-amyloid polyclonal antibody diluted 1/1000 in Tris buffer B. Sections were washed twice in Tris buffer A and once in Tris buffer B then incubated with biotin-conjugated anti-mouse antibody raised in donkey from Jackson Laboratories diluted 1/500 in Tris buffer A for 1 hour. Sections were washed twice in Tris buffer A and once in Tris buffer B then incubated with avidin-conjugated horse radish peroxidase using the ABC Immunohistochemistry kit from Vector Laboratories. […]

For series [3], the system named is amyloid plaques. In words: In vivo clearing of amyloid plaques in a mouse model of Alzheimer's disease. The conditions noted are these: direct infusion into the cerebral cortex in one hemisphere; APP Swedish/presenilin M146L transgenic mouse. The protocol:
The ability of Aβ(16-30)-Fc to clear amyloid plaques in a mouse model of Alzheimer's disease was assessed. The fusion protein was administered to a mouse transgenic for both the Swedish mutation of amyloid precursor protein and presenilin M146L by direct infusion into the cerebral cortex in one hemisphere. The mouse was sacrificed and the amount of amyloid in brain sections was determined by Thioflavin S staining.

Chain of amyloid plaques (P05067 672-711 limits assumed): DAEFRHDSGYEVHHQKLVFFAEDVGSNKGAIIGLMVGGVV
T1 sequence (P05067 672-711): as the sequence (P05067 672-711 limits assumed) above

Take “PPI-1019: compound tested in the Fibril binding assay; structure not given”: the “inhibition of Aβ aggregation (Fibril binding assay)” value in series [1] is on record as “effective inhibitors of Aβ aggregation”.

B1: Fc domain without a β-amyloid fragment: control protein: mouse IgG1 Fc region with no amyloid binding sequence (protein)
chain: VPRDCGCKPCICTVPEVSSVFIFPPKPKDVLTITLTPKVTCVVVDISKDDPEVQFSWFVDDVEVHTAQTQPREEQFNSTFRSVSELPIMHQDWLNGKEFKCRVNSAAFPAPIEKTISKTKGRPKAPQVYTIPPPKEQMAKDKVSLTCMITDFFPEDITVEWQWNGQPAENYKNTQPIMNTNGSYFVYSKLNVQKSNWEAGNTFTCSVLHEGLHNHHTEKSLSHSPGK
For B1, the “staining of amyloid plaques in coronal brain sections” value in the series on amyloid plaques [2] is reported as “No amyloid plaques were detected”. For the same molecule, in the series on amyloid plaques [3], the “plaque burden at the site of infusion compared to the control hemisphere (Thioflavin S staining)” value is “no difference”.
